According to article doi:10.1101/2023.04.01.535202, “Three small partner proteins facilitate the type VII-dependent secretion export of an antibacterial nuclease” (bioRxiv, 2023):

Biological target: the molecule itself
Experiment: cross-linking; purified complex from the major SEC peak at 0.5 mg/ml in 50 mM HEPES pH 7.5, 150 mM NaCl, 0.1% glutaraldehyde for 30 minutes at room temperature, quenched with tris; SEC and SDS-PAGE

Row | Protein | stoichiometry N
1 | EsaDEG complex (complex, EsaD nuclease toxin of S. aureus, as m1; EsaE of S. aureus, as m2; EsaG of S. aureus, as m3; Cross-linked with glutaraldehyde for the experiment on dimers-of-trimers and for cryo-EM; also called EsaDEG trimer; not shown: His6, C-terminal, kept; copies: + +) chain 1: MTKDIEYLTADYDNEKSSIQSVIDAIEGQDFLDVDTTMDDAVSDVSSLDEDGAISLTSSVVGPQGSKLMGYYQNELYDYASQLDSKMKEIIDTPFIEDIDKAFKGITNVKLENILIKNGGGHGRDTYGASGKIAKGDAKKSDSDVYSIDEILKSDQEFVKVIDQHYKEMKKEDKKLSKSDFEKMMTQGASCDYMTVAEAEELEEQKKKEEAIEIAALAGMVVLSCINPVAGAVAIGAYSAYSAANAATGKNIVTGRKLSKEERIMEGLSLIPLPGMGFLKGAGKSLMKLGFKGGEKFAVKTGLQKTMQQAVSRISPKMGMMKNSVLNQSRNFAQNTHVGQMLSNMRGQATHTVQQSRNWIGQQAQNVKRIVNNGLDKEIAHPFKQQLAPAGMGGIKFAETTTLRNMGQNIKRAVTPQNHVTHGPKDSMVRSEGKHSISSHEMNSSKYVESPNYTKVEFGEHYARLRPKKLKANIEYTTPTGHIYRTDHKGRIKEVYVDNLSLKDGDRNSHAQRTVGGEDRLPDDDGGALIARMFGGSKDIDNLVAQSKFINRPFKEKGHWYNLEKEWQEFLNSGKEVKNIKMEVKYSGNSQRPTIFKVEYEINGERNIRRILNK chain 2: MKDVKRIDYFSYEELTILGGSKLPLVNFELFDPSNFEEAKAALIEKELVTENDKLTDAGFKVATLVREYISAIVNIRINDMYFAPFSYEKDEYILLSRFKNNGFQIRIINKDIAWWSIVQSYPLLMRQEKSNDWDFKQIDDETLENLNNESIDTIGRVLEIEIYNHQGDPQQSLYNIYEQNDLLFIRYPLKDKVLNVHIGVINTFIRELFGFDTDENHINKAEE chain 3: MTFEEKLSKIYNEIANEISSMIPVEWEKVYTMAYIDDGGGEVFFNYTKPGSDDLNYYTNIPKEYNISVQVFDDLWMDLYDLFEELRDLFKEEDLEPWTSCEFDFTREGELKVSFDYIDWINSEFGQIGRQNYYKYRKFGILPETEYEINKVKEIEQYIKELEE | 2
2 | EsaDEG-EsxBCD complex (complex, EsaD nuclease toxin of S. aureus, as m1; EsaE of S. aureus, as m2; EsaG of S. aureus, as m3; EsxB of S. aureus, as m4; EsxC of S. aureus, as m5; EsxD of S. aureus, as m6; Cross-linked with glutaraldehyde for the experiment on dimers-of-hexamers and for cryo-EM; also called EsaDEG-EsxBCD hexamer; EsxBCD-EsaDEG complex; not shown: His6, C-terminal, kept; twin-strep, C-terminal, kept; copies: + + + …) chain 1: MTKDIEYLTADYDNEKSSIQSVIDAIEGQDFLDVDTTMDDAVSDVSSLDEDGAISLTSSVVGPQGSKLMGYYQNELYDYASQLDSKMKEIIDTPFIEDIDKAFKGITNVKLENILIKNGGGHGRDTYGASGKIAKGDAKKSDSDVYSIDEILKSDQEFVKVIDQHYKEMKKEDKKLSKSDFEKMMTQGASCDYMTVAEAEELEEQKKKEEAIEIAALAGMVVLSCINPVAGAVAIGAYSAYSAANAATGKNIVTGRKLSKEERIMEGLSLIPLPGMGFLKGAGKSLMKLGFKGGEKFAVKTGLQKTMQQAVSRISPKMGMMKNSVLNQSRNFAQNTHVGQMLSNMRGQATHTVQQSRNWIGQQAQNVKRIVNNGLDKEIAHPFKQQLAPAGMGGIKFAETTTLRNMGQNIKRAVTPQNHVTHGPKDSMVRSEGKHSISSHEMNSSKYVESPNYTKVEFGEHYARLRPKKLKANIEYTTPTGHIYRTDHKGRIKEVYVDNLSLKDGDRNSHAQRTVGGEDRLPDDDGGALIARMFGGSKDIDNLVAQSKFINRPFKEKGHWYNLEKEWQEFLNSGKEVKNIKMEVKYSGNSQRPTIFKVEYEINGERNIRRILNK chain 2: MKDVKRIDYFSYEELTILGGSKLPLVNFELFDPSNFEEAKAALIEKELVTENDKLTDAGFKVATLVREYISAIVNIRINDMYFAPFSYEKDEYILLSRFKNNGFQIRIINKDIAWWSIVQSYPLLMRQEKSNDWDFKQIDDETLENLNNESIDTIGRVLEIEIYNHQGDPQQSLYNIYEQNDLLFIRYPLKDKVLNVHIGVINTFIRELFGFDTDENHINKAEE chain 3: MTFEEKLSKIYNEIANEISSMIPVEWEKVYTMAYIDDGGGEVFFNYTKPGSDDLNYYTNIPKEYNISVQVFDDLWMDLYDLFEELRDLFKEEDLEPWTSCEFDFTREGELKVSFDYIDWINSEFGQIGRQNYYKYRKFGILPETEYEINKVKEIEQYIKELEE chain 4: MGGYKGIKADGGKVDQAKQLAAKTAKDIEACQKQTQQLAEYIEGSDWEGQFANKVKDVLLIMAKFQEELVQPMADHQKAIDNLSQNLAKYDTLSIKQGLDRVNP chain 5: MNFNDIETMVKSKFKDIKKHAEEIAHEIEVRSGYLRKAEQYKRLEFNLSFALDDIESTAKDVQTAKSSANKDSVTVKGKAPNTLYIEKRNLMKQKLEMLGEDIDKNKESLQKAKEIAGEKASEYFNKAMN chain 6: MTLSGKISVKAETIAHVVKELESISQKYDEIAQNFGKIAQLNYYSSEKAAHSMENGYSSAATVISGLKGPLSTLGGGVMNSAQKFFEADEHWGTEFAKLYYNIEG | 2
